Measured values: PMC9117659, “Phase transition and remodeling complex assembly are important for SS18-SSX oncogenic activity in synovial sarcomas” (Nature Communications, 2022)

Tests used:
Conditions in all cases: both partners purified
SNF11^(38-169) = biological target: T1, SNF11^(38-169) (S. cerevisiae, UniProt P38956 38-169); assay: AUC; sedimentation velocity, 4 °C, interference detection, 50 mM MES pH 6.0, 50 mM NaCl, 1 mM EDTA, 1 mM DTT; SEDFIT
T1 construct: Cloned into one of the two multiple cloning sites of pETDuet-1
T1 sequence (looked up): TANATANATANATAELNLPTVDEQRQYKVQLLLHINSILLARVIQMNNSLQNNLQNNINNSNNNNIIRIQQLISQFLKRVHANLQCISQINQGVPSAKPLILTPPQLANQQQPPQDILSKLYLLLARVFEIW

SS18^(14-101) = biological target: T2, SS18^(14-101) (human, UniProt Q15532 14-101); assay: as above
T2 construct: SS18, human, residues 14-101, includes the SNH domain; also called SS18 fragment aa 14-101 (includes the SNH domain); source: E. coli BL21(DE3) Codon Plus, purified

[1] = biological target: T3, Human SS18 (residues 1-387), purified recombinant (human, UniProt Q15532-2 1-387); assay: SEC; purified human proteins or fragments run together on a size-exclusion column; coelution, fractions on SDS-PAGE
T3 construct: The MBP-his6 vector is told for the proteins studied in phase separation; also called SS18^(1-387); SS18-WT; source: E. coli BL21(DE3) Codon Plus, purified (Ni-NTA, SEC)
T3 sequence (Q15532 other isoform, or with tags, fused parts or gaps): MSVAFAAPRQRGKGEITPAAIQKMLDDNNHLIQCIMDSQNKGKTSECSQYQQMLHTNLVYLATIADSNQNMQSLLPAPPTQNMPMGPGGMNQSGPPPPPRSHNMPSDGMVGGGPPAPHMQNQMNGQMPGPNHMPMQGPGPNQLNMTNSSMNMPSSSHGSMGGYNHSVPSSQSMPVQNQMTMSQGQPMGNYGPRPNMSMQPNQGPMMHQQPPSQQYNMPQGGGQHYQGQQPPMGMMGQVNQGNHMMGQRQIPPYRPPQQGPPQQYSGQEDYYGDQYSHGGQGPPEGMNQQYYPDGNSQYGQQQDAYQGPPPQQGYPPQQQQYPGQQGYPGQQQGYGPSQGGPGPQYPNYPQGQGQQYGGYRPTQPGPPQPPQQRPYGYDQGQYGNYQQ

T2 sequence (Q15532 14-101): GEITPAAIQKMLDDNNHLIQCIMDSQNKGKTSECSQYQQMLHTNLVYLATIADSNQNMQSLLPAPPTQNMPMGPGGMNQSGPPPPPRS

B1: SNF2^(248-308), 60-residue fragment including the QLQ domain of SNF2 (domain or fragment, S. cerevisiae, UniProt P22082 248-308, looked up)
chain: FTAEQSELLKAQITSLKCLVNRKPIPFEFQAVIQKSINHPPDFKRMLLSLSEFARRRQPTD
notes: Cloned into one of the two multiple cloning sites of pETDuet-1
SNF11^(38-169)
  stoichiometry N: 1

B2: BRG1^(172-213) (domain or fragment, human, UniProt P51532 172-213, looked up)
chain: FNQNQLHQLRAQIMAYKMLARGQPLPDHLQMAVQGKRPMPGM
notes: In the crystal it stood fused to SS18^(14-101) on one chain; source: E. coli BL21(DE3) Codon Plus, purified
SS18^(14-101)
  stoichiometry N: 1

B3: BRG1^(1-282), N-terminal 282-residue fragment of BRG1 (domain or fragment, human, UniProt P51532 1-282, looked up)
chain: MSTPDPPLGGTPRPGPSPGPGPSPGAMLGPSPGPSPGSAHSMMGPSPGPPSAGHPIPTQGPGGYPQDNMHQMHKPMESMHEKGMSDDPRYNQMKGMGMRSGGHAGMGPPPSPMDQHSQGYPSPLGGSEHASSPVPASGPSSGPQMSSGPGGAPLDGADPQALGQQNRGPTPFNQNQLHQLRAQIMAYKMLARGQPLPDHLQMAVQGKRPMPGMQQQMPTLPPPSVSATGPGPGPGPGPGPGPGPAPPNYSRPHGMGGPNMPPPGPSGVPPGMPGQPPGGPPK
notes: Cloned into a modified pET32a (Trx-his6, N-terminal); the methods describe PreScission cleavage of the Trx-his6 tag in general; Cy3-labelled only for imaging; source: E. coli BL21(DE3) Codon Plus, purified (Ni-NTA, SEC, ion exchange); not shown: Trx, N-terminal, cleaved; His6, N-terminal, cleaved
[1]
  binding result: binds
